Assay results as given in patent US20260070974A1 (NONA BIOSCIENCES SUZHOU, published 2026).

T1: human Siglec-10-his protein (Acrobiosystems, Cat SIO-H52H9) (human, UniProt Q96LC7 17-546, limits assumed)
T1 construct: Bought protein; not shown: his tag
T1 sequence (looked up): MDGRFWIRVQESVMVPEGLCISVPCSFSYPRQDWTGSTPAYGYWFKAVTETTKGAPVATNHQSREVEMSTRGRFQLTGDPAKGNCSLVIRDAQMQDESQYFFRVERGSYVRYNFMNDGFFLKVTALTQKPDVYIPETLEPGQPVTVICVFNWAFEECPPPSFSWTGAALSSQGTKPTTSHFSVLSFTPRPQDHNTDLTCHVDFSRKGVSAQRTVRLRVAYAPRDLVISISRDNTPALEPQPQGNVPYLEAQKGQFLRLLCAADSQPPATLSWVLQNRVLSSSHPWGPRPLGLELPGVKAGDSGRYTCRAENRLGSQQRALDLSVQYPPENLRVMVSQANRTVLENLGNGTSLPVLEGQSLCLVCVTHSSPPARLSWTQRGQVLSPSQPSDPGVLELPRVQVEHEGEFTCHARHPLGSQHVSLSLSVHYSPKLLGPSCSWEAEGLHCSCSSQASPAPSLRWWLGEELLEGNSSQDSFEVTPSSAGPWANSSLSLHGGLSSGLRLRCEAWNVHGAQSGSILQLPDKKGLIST


Molecular target: T1, human Siglec-10-his protein …
Assay: ELISA on coated human Siglec-10-his, antibody at 100 nM and 10 nM, goat anti-human IgG-HRP, OD450
Procedure: Human Siglec-15 ECD-his protein (Acrobiosystems, Cat SG5-H52H3), human Siglec-2-his protein (Acrobiosystems, Cat CD2-H52H8), human Siglec-4a-his protein (Acrobiosystems, Cat MAG-H52H8), human Siglec-3-his protein (Acrobiosystems, Cat CD3-H5226), human Siglec-10-his protein (Acrobiosystems, Cat SIO-H52H9), and human PD-L1/B7-H1-his protein (Acrobiosystems, Cat PD1-H5229), each at 1 μg/mL and dissolved in PBS, were each added to an ELISA plate at 100 μL/well for coating and the plate was incubated overnight at 4° C. The ELISA plate was then blocked with PBST (PBS+0.05% Tween 20) containing 2% BSA at 200 μL/well and incubated at 37° C. for 1 h. The ELISA plate was washed 4 times with PBST. The anti-Siglec-15 antibody diluted in a gradient (concentrations: 100 nM and 10 nM) was added to the ELISA plate at 100 μL/well and the plate was incubated at 37° C. for 1 h. The ELISA plate was washed 4 times with PBST. The goat anti-human IgG (H+L)-HRP (1:5000, Jackson, Cat 109-035-088) was added at 100 μL/well and the plate was incubated at 37° C. for 1 h. The ELISA plate was washed 4 times with PBST. The TMB substrate (Biopanda, Cat TMB-S-003) was added at 100 μL/well, and the plate was incubated at room temperature for 5 min, and then the stop buffer (Solarbio, Cat #: C1058) was added at 100 μL/well to stop the reaction.

Binder | binding result
PR300066 (Tab) (antibody, human IgG1, kappa, V domains shown, variable region from clone 5G12 of WO 2018/057735A1, on human IgG1/kappa constant regions; also called 5G12) VH: QVQLQQPGAELVKPGASVKMSCKASGYTFTSYWITWVIQRPGQGLEWIGDIYCGSDTMHYNEKFKNKATLTVDTSSSTAYMQLSSLTSEDSAVYYCARWWDYGSSYDYFDYWGQGTTLTVSS VL: DIKMTQSPSSMYASLGERVTITCKASQDINSYLSWFQQKPGKSPKTLIYRANRLVDGVPSRFSGSGSGQDYSLTISSLEYEDMGIYYCLQYDEFPYTFGGGTKLEIKR | no binding (tested: 100 nM)
PR301285 (antibody, human IgG1, kappa, V domains shown) VH: QVQLQESGPGLVKPSETLSLTCTVSGGSMISYYWSWLRQPPGKGLEWIGYIYYSGNTNYNPSLKSRITIAVDTSKNQFSLKLNSVTAADTAVYYCARERELHPYYFDYWGQGTLVTVSS VL: DIQLTQSPSFLSASVGDRVTITCRASQGIDNYLAWYQQKPGKAPKVLIYAASTLQSGVPSRFSGSGSGTEFTLTISSLQPEDFATYYCQQLNSYPLTFGGGTKVEIKR | no binding (tested: 100 nM)
PR301286 (antibody, human IgG1, kappa, V domains shown, Parent of the PTM variants PR301286-1, -3, -5, -6, -7) VH: QVQLVESGGGVVQPGKSLRLSCAASGFTFSSYGMHWVRQAPGKGLEWVAVIWIDGSNRYYAASVKGRFTISRDNSKNTLYLQMNSLRAEDTAVYYCTRGYGDYAYVMDVWGQGASVTVSS VL: DIVMTQSPLSLPVTPGEPASISCRSSQSLLPGNGYNYLDWYLQKPGQSPQLLIYLGSNRASGVPDRFSGSGSGTDFTLKISRVEAEDVGIYYCMQALQSPLTFGGGTKVEIKR | no binding (tested: 100 nM)
PR301289 (antibody, human IgG1, kappa, V domains shown, Parent of the PTM variants PR301289-1 and -2) VH: QVQLVQSGAEVKKPGASVKVSCRASGYTFTSYDINWVRQATGQGLEWMGWMNPHSGDTGYAQNFQGRVTMTWNTSISTAYMELSSLRSEDTAVYYCARRRVGVYYYGMDVWGQGTTVTVSS VL: ENVLTQSPGTLSLSPGERATLSCRASQSVSSSYFGWYQQKPGQAPRLLIYGASSRATGIPDRFSGSGSGTDFTLTISRLEPEDFAVYYCQQYGSSPITFGQGTRLEIKR | no binding (tested: 100 nM)
